Results published in US20150329626A1 (Eli Lilly, published 2015).
Each block holds one binder with its values, some of them ahead of it.

Tests used:
[1] = target: T1, cyno VEGFR2 extracellular domain (cynomolgus monkey, UniProt A0A2K5VE63 20-764); experiment: Biacore SPR, 37 C, n = 3, compound captured on Protein A, VEGFR2-ECD as analyte
T1 construct: extracellular domain; also called cynomolgus monkey VEGFR2

[2] = target: T2, dog VEGFR2 extracellular domain (dog, UniProt Q2XPT7 20-763); experiment: as above
T2 construct: extracellular domain

[3] = target: T3, human VEGFR2 extracellular domain (human, UniProt P35968 20-764); experiment: as above
T3 construct: also called hVEGFR2-ECD; human VEGFR2-ECD
T3 sequence (P35968 20-764): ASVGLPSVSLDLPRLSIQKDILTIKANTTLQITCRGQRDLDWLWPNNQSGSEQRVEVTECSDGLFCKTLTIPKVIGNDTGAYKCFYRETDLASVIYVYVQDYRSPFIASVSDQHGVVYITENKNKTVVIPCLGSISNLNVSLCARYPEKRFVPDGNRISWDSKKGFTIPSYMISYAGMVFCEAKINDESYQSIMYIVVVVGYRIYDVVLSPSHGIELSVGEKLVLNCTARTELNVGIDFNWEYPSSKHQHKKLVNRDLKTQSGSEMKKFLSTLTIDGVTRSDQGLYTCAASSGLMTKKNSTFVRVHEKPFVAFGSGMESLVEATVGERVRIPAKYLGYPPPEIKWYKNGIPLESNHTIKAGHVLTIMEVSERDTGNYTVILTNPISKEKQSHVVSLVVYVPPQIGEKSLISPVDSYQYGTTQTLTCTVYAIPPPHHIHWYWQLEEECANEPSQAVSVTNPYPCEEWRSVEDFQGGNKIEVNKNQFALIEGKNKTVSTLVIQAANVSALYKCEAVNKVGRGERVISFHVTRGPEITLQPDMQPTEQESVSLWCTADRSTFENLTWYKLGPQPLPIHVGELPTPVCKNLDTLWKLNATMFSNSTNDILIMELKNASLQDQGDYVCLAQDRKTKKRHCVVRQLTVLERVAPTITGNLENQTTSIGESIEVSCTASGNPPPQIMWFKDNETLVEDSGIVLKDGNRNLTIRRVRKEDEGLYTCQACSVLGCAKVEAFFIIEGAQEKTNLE

[4] = target: T4, rabbit VEGFR2 extracellular domain (rabbit, UniProt G1SN50 20-764); experiment: as above
T4 construct: extracellular domain
T4 sequence (G1SN50 entry or part of it): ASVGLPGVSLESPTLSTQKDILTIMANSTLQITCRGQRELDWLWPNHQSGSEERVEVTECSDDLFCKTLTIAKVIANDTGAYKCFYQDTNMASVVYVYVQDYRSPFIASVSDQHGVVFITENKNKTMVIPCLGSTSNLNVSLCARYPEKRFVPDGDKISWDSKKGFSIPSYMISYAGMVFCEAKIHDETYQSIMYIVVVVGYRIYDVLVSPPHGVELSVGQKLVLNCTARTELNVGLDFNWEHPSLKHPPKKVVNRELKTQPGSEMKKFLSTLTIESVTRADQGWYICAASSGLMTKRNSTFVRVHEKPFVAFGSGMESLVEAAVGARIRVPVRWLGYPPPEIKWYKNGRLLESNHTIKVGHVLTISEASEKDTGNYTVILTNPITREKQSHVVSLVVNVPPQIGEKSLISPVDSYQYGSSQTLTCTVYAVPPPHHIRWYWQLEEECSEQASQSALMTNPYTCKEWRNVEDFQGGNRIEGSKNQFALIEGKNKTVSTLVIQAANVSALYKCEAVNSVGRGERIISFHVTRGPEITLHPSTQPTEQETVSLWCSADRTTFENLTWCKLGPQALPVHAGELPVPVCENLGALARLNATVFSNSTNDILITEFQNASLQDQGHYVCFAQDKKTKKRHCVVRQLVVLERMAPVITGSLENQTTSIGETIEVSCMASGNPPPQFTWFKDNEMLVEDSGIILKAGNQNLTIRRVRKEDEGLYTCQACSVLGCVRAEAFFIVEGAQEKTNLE

[5] = target: T5, human Ang2 (human, UniProt O15123 19-496); experiment: Biacore SPR, 25 C, compound captured on Protein A, Ang2 as analyte
T5 construct: also called hAng2; human angiopoietin-2
T5 sequence: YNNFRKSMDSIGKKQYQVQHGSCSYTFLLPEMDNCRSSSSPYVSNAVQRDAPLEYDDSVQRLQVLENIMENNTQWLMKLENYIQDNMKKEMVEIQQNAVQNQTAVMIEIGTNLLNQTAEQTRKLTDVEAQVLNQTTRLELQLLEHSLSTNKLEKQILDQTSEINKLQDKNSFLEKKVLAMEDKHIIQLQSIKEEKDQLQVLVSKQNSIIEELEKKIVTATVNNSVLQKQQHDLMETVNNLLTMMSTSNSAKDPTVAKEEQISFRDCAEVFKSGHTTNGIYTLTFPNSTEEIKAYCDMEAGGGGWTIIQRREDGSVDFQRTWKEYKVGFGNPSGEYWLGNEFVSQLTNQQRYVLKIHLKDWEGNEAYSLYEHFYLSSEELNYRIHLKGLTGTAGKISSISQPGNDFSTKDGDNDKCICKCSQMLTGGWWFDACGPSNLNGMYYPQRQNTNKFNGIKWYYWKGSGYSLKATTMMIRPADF

[6] = target: T5, human Ang2; experiment: competition ELISA: blocking of biotinylated human Ang2 binding to plate-coated human Tie2-Fc
[7] = target: human VEGFR2 on cells (ECFC, HMVEC-d) (human, UniProt P35968 20-1356); experiment: cell-based or functional assay
[8] = target: T5, human Ang2; experiment: cell-based or functional assay
[9] = target: T3, human VEGFR2 extracellular domain; experiment: Biacore SPR, 25 C, compound captured on Protein A, VEGFR2-ECD as analyte
[10] = target: T6, cyno Ang2 (cynomolgus monkey, UniProt A0A2K5VNX6 19-496); experiment: Biacore SPR, 37 C, n = 3, compound captured on Protein A
T6 construct: also called cynomolgus monkey Ang2
T6 sequence: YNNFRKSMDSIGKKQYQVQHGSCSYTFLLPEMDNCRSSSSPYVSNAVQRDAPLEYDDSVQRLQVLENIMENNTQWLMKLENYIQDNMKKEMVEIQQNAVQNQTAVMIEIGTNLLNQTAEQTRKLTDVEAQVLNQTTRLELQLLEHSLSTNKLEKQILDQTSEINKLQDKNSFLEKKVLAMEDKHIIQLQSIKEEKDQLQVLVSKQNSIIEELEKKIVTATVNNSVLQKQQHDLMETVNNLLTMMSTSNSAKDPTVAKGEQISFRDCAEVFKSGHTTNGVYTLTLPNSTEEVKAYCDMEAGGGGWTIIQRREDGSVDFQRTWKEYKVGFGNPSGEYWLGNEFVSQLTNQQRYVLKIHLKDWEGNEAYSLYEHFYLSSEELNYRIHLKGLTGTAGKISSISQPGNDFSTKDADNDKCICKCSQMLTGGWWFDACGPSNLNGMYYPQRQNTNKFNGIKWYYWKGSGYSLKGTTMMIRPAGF

[11] = target: T7, rabbit Ang2 (rabbit, UniProt G1T9B3 19-496); experiment: as above
T7 sequence: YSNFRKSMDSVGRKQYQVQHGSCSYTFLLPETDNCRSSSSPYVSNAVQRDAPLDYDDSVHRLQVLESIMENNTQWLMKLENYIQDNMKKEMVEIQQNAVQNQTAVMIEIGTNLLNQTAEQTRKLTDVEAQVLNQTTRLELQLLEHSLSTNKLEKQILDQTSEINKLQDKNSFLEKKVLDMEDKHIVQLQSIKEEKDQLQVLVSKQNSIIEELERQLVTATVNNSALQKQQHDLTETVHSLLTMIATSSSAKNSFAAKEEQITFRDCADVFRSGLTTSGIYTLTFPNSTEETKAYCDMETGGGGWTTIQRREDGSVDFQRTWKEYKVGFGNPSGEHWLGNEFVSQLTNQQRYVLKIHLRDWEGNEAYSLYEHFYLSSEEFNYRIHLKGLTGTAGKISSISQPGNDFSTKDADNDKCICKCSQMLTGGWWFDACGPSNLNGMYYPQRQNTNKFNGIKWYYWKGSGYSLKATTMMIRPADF

[12] = target: T8, dog Ang2 (dog, UniProt A0A8J8 19-495, limits assumed); experiment: as above
T8 sequence (looked up): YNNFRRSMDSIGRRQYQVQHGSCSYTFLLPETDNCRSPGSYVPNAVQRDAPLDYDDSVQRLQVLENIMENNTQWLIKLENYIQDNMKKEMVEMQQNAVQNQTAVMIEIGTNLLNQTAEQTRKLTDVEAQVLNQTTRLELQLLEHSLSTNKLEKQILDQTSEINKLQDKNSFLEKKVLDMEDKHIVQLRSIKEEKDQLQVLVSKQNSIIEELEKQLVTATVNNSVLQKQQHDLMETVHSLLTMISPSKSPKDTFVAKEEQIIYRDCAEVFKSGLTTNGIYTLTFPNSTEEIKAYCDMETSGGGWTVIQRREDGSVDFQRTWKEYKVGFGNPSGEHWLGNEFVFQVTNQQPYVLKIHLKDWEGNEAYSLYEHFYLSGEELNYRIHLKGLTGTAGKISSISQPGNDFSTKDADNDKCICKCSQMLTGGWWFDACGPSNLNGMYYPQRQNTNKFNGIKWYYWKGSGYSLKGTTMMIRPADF

[13] = target: T5, human Ang2; experiment: as above
[14] = target: T9, mouse Ang2 (mouse, UniProt O35608 19-496, limits assumed); experiment: as above
T9 sequence (looked up): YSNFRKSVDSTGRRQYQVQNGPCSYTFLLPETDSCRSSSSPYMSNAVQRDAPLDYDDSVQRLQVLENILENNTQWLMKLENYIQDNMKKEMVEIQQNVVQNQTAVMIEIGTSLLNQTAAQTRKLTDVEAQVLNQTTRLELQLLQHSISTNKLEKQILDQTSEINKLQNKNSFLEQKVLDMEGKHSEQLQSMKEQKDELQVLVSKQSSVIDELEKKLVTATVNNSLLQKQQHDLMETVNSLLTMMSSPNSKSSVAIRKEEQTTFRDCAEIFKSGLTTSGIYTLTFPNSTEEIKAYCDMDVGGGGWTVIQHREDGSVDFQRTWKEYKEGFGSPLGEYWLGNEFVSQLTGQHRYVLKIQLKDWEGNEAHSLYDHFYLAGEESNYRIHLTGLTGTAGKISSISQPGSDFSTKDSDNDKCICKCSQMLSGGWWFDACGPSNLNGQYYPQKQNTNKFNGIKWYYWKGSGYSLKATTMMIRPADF

T1 sequence (A0A2K5VE63 entry or part of it): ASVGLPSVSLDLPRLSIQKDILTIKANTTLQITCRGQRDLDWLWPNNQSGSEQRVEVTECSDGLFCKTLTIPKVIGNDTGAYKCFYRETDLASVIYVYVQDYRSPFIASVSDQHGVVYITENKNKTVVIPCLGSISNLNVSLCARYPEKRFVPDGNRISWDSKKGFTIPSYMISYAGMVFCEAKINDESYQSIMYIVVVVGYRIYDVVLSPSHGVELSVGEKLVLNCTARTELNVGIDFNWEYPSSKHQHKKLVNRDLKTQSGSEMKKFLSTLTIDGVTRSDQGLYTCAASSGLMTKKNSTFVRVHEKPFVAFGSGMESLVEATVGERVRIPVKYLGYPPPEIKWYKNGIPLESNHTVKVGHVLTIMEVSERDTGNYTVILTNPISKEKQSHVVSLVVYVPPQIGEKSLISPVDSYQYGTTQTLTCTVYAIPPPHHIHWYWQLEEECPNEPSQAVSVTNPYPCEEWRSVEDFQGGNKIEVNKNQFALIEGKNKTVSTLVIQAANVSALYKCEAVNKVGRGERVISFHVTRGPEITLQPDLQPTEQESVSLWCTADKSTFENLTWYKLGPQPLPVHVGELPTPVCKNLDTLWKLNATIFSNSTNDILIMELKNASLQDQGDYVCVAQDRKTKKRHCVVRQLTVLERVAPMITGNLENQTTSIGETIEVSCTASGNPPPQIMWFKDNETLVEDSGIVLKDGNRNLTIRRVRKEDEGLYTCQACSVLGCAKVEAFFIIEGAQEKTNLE

Kd [1]: 3.3 nM | koff [1]: 0.00011 s⁻¹ | kon [1]: 34000 M⁻¹ s⁻¹ | Kd [2]: 37 nM | koff [2]: 0.0015 s⁻¹ | kon [2]: 41000 M⁻¹ s⁻¹ | Kd [3]: 4.6 nM | koff [3]: 0.00012 s⁻¹ | kon [3]: 25000 M⁻¹ s⁻¹ | Kd [4]: 6.1 nM | koff [4]: 0.00023 s⁻¹ | kon [4]: 38000 M⁻¹ s⁻¹ | Kd [5]: 0.673 nM | koff [5]: 0.000105 s⁻¹ | kon [5]: 156000 M⁻¹ s⁻¹ | IC50 [6]: 0.034 nM | inhibition of human VEGF165-induced proliferation of HMVEC-d (IC50) [7]: 19.2 nM | inhibition of human VEGF-induced cord formation in ADSC/ECFC co-culture (IC50) [7]: 6.04 nM | inhibition of human Ang2 induced phospho-Tie2 in CHO-Tie2 cells (IC50) [8]: 0.587 nM | Kd [9]: 0.721 nM | koff [9]: 1.8e-05 s⁻¹ | kon [9]: 25000 M⁻¹ s⁻¹ | Kd [10]: 0.3 nM | koff [10]: 0.00028 s⁻¹ | kon [10]: 960000 M⁻¹ s⁻¹ | Kd [11]: 0.42 nM | koff [11]: 0.00011 s⁻¹ | kon [11]: 270000 M⁻¹ s⁻¹ | Kd [12]: 0.24 nM | koff [12]: 9e-05 s⁻¹ | kon [12]: 360000 M⁻¹ s⁻¹ | Kd [13]: 0.1 nM | koff [13]: 7e-05 s⁻¹ | kon [13]: 820000 M⁻¹ s⁻¹ | Kd [14]: 0.23 nM | koff [14]: 8e-05 s⁻¹ | kon [14]: 360000 M⁻¹ s⁻¹
B1: Compound F (bispecific antibody, human IgG4 S228P, kappa, F234A L235A)
heavy: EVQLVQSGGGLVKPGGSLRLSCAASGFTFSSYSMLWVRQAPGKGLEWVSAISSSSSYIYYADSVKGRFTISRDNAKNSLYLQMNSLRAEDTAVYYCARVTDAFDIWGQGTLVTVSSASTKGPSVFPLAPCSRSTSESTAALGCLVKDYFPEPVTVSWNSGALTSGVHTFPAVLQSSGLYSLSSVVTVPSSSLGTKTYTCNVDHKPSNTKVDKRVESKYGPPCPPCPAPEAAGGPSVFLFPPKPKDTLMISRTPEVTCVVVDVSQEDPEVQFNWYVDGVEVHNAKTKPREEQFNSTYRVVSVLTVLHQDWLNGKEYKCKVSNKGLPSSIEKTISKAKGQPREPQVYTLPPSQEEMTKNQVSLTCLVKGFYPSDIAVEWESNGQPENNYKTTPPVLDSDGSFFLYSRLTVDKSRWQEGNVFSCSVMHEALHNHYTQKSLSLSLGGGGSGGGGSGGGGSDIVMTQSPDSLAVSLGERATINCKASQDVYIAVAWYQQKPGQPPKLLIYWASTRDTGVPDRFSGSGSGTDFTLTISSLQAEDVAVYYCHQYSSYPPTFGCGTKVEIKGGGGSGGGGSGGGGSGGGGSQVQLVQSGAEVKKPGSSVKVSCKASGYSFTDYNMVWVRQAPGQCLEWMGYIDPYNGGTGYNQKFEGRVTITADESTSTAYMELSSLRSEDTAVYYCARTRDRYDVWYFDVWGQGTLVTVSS
light: DIQMTQSPSSVSASVGDRVTITCRASRGIDNWLTWYQQKPGKAPKLLIYEASSLQSGVPSRFSGSGSGTDFTLTISSLQPEDFATYYCQQAKAFPPTFGGGTKVDIKRTVAAPSVFIFPPSDEQLKSGTASVVCLLNNFYPREAKVQWKVDNALQSGNSQESVTEQDSKDSTYSLSSTLTLSKADYEKHKVYACEVTHQGLSSPVTKSFNRGEC
notes: also called Cmpd F

Kd [5]: 0.407 nM | koff [5]: 9.7e-05 s⁻¹ | kon [5]: 239000 M⁻¹ s⁻¹ | Kd [9]: 1.11 nM | koff [9]: 3.5e-05 s⁻¹ | kon [9]: 32000 M⁻¹ s⁻¹
B2: Compound E (bispecific antibody, human IgG4 S228P, kappa, F234A L235A)
heavy: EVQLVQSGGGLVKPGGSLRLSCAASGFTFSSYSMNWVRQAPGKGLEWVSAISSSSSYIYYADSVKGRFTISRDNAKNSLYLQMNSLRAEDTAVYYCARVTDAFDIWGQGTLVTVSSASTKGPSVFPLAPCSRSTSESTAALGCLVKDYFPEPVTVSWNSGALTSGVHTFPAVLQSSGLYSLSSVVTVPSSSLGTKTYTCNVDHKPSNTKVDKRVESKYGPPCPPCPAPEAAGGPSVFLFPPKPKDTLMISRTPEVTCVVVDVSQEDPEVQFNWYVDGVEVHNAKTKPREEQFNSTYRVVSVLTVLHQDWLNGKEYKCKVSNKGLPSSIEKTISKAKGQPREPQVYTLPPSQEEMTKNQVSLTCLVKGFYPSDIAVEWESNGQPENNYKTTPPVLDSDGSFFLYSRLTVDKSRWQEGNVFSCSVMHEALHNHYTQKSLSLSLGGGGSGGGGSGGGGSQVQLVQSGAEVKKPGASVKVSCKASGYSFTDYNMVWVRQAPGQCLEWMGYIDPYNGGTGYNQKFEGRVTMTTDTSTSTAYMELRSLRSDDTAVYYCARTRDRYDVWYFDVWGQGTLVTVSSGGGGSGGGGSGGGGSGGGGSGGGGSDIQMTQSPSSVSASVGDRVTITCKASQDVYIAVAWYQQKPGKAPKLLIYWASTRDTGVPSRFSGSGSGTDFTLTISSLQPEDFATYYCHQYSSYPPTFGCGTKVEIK
light: DIQMTQSPSSVSASVGDRVTITCRASQGIDNWLTWYQQKPGKAPKLLIVEASSLQSGVPSRFSGSGSGTDFTLTISSLQPEDFATYYCQQAKAFPPTFGGGTKVDIKRTVAAPSVFIFPPSDEQLKSGTASVVCLLNNFYPREAKVQWKVDNALQSGNSQESVTEQDSKDSTYSLSSTLTLSKADYEKHKVYACEVTHQGLSSPVTKSFNRGEC

Kd [5]: 0.489 nM | koff [5]: 8.6e-05 s⁻¹ | kon [5]: 175000 M⁻¹ s⁻¹ | Kd [9]: 0.86 nM | koff [9]: 2.9e-05 s⁻¹ | kon [9]: 34000 M⁻¹ s⁻¹
B3: Compound D (bispecific antibody, human IgG4 S228P, kappa, F234A L235A)
heavy: not shown
light: DIQMTQSPSSVSASVGDRVTITCRASQGIDNWLTWYQQKPGKAPKLLIVEASSLQSGVPSRFSGSGSGTDFTLTISSLQPEDFATYYCQQAKRFPPTFGGGTKVDIKRTVAAPSVFIFPPSDEQLKSGTASVVCLLNNFYPREAKVQWKVDNALQSGNSQESVTEQDSKDSTYSLSSTLTLSKADYEKHKVYACEVTHQGLSSPVTKSFNRGEC

Kd [5]: 0.462 nM | koff [5]: 0.000105 s⁻¹ | kon [5]: 226000 M⁻¹ s⁻¹ | Kd [9]: 0.528 nM | koff [9]: 2e-05 s⁻¹ | kon [9]: 38000 M⁻¹ s⁻¹
B4: Compound C (bispecific antibody, human IgG4 S228P, kappa, F234A L235A)
heavy: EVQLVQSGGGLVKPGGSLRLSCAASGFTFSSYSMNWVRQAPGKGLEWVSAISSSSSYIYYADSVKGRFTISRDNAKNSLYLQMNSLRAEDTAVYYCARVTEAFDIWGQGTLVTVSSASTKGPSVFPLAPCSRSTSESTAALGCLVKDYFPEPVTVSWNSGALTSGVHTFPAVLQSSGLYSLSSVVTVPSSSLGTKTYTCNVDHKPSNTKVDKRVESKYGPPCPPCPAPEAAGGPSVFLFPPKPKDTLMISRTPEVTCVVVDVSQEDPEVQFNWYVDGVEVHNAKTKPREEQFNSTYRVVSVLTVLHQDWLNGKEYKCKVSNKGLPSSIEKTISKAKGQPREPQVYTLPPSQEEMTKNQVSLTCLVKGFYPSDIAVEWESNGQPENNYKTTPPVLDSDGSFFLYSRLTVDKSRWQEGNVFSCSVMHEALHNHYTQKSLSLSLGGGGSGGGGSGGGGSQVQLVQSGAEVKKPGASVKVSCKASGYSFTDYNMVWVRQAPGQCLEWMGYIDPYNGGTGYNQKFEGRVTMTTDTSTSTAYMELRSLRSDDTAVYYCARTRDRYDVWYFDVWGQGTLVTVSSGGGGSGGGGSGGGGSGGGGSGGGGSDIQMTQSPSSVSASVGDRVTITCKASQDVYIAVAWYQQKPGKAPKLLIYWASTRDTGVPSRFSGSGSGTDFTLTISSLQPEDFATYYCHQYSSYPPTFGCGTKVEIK
light: DIQMTQSPSSVSASVGDRVTITCRASRGIDNWLTWYQQKPGKAPKLLIYEASSLQSGVPSRFSGSGSGTDFTLTISSLQPEDFATYYCQQAKAFPPTFGGGTKVDIKRTVAAPSVFIFPPSDEQLKSGTASVVCLLNNFYPREAKVQWKVDNALQSGNSQESVTEQDSKDSTYSLSSTLTLSKADYEKHKVYACEVTHQGLSSPVTKSFNRGEC

Kd [5]: < 0.1 nM | koff [5]: < 1e-05 s⁻¹ | kon [5]: 183000 M⁻¹ s⁻¹ | Kd [9]: 0.711 nM | koff [9]: 4.8e-05 s⁻¹ | kon [9]: 68000 M⁻¹ s⁻¹
B5: Compound A (bispecific antibody, human IgG1, kappa)
heavy: not shown
light: DIQMTQSPSSVSASIGDRVTITCRASQGIDNWLGWYQQKPGKAPKLLIYDASNLDTGVPSRFSGSGSGTYFTLTISSLQAEDFAVYFCQQAKAFPPTFGGGTKVDIKRTVAAPSVFIFPPSDEQLKSGTASVVCLLNNFYPREAKVQWKVDNALQSGNSQESVTEQDSKDSTYSLSSTLTLSKADYEKHKVYACEVTHQGLSSPVTKSFNRGEC

Kd [5]: < 0.1 nM | koff [5]: < 1e-05 s⁻¹ | kon [5]: 285000 M⁻¹ s⁻¹ | Kd [9]: 0.513 nM | koff [9]: 4.1e-05 s⁻¹ | kon [9]: 81000 M⁻¹ s⁻¹
B6: Compound B (bispecific antibody, human IgG4 S228P, kappa, F234A L235A)
heavy: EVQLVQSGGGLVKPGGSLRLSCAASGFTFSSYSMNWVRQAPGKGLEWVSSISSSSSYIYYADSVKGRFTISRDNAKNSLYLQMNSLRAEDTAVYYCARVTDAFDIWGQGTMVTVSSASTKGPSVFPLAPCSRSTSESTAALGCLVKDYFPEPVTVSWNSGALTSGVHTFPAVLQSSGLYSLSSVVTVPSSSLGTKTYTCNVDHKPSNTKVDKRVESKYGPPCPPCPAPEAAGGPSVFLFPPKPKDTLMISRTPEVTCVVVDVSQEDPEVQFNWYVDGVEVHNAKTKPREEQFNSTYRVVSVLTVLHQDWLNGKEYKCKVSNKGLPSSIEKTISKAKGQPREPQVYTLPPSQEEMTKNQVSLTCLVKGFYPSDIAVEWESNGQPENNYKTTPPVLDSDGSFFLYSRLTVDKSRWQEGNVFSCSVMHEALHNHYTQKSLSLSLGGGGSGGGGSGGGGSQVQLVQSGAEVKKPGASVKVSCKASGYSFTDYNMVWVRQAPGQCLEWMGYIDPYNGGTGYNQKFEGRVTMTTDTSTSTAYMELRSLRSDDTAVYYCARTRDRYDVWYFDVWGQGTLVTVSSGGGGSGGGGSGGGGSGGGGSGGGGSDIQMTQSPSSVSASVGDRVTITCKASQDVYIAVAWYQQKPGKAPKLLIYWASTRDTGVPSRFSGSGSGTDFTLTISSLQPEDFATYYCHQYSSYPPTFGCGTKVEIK
light: DIQMTQSPSSVSASIGDRVTITCRASQGIDNWLGWYQQKPGKAPKLLIYDASNLDTGVPSRFSGSGSGTYFTLTISSLQAEDFAVYFCQQAKAFPPTFGGGTKVDIKRTVAAPSVFIFPPSDEQLKSGTASVVCLLNNFYPREAKVQWKVDNALQSGNSQESVTEQDSKDSTYSLSSTLTLSKADYEKHKVYACEVTHQGLSSPVTKSFNRGEC
